Results as given in paper PMC314469, “Protein Interaction Networks by Proteome Peptide Scanning” (PLoS Biology, 2004).

Legend:
Test in all cases: SPOT array
[1] = biological target: T1, Yhr016c SH3 (YSC84_YEAST), P32793
T1 chain: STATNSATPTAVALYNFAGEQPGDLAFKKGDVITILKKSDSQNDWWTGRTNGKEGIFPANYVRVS

[2] = biological target: T2, Yfr024 SH3 (LSB3_YEAST), P43603
T2 chain: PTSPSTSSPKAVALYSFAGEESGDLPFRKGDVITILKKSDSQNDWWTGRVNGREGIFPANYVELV

[3] = biological target: T3, Boi2 SH3 (BOI2_YEAST), P39969
T3 chain: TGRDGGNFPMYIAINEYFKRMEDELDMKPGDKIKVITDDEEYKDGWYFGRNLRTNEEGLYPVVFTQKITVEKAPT

[4] = biological target: T4, Myo5 SH3 (MYO5_YEAST), Q04439
T4 chain: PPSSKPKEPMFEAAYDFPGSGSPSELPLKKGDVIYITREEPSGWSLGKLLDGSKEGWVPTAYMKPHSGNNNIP

[5] = biological target: T5, Rvs167 SH3 (RV167_YEAST), P39743
T5 chain: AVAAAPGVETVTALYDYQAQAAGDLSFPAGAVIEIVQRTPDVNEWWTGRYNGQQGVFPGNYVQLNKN

[6] = biological target: T6, Boi1 SH3 (BOI1_YEAST), P38041
T6 chain: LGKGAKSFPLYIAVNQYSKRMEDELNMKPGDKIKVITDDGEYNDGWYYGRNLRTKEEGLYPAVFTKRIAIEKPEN

[7] = biological target: Sho1 SH3 (SHO1_YEAST), P40073
Sequence of Sho1 SH3 (SHO1_YEAST), P40073 (P40073 295-366): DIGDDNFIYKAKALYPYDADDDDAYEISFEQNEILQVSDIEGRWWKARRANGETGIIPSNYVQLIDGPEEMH

Row | Binder | normalised SPOT signal, Boehringer light units (BLU); mean over the file's lines of this peptide [1] | normalised SPOT signal, Boehringer light units (BLU); mean over the file's lines of this peptide [2] | normalised SPOT signal, Boehringer light units (BLU); mean over the file's lines of this peptide [3] | normalised SPOT signal, Boehringer light units (BLU); mean over the file's lines of this peptide [4] | normalised SPOT signal, Boehringer light units (BLU); mean over the file's lines of this peptide [5] | normalised SPOT signal, Boehringer light units (BLU); mean over the file's lines of this peptide [6] | normalised SPOT signal, Boehringer light units (BLU); mean over the file's lines of this peptide [7]
1 | KQLKKQGPKRPSSA [YKL032C 354-367] | 109 | 751 | 28.7 | 468 | 80.4 | 767 | 151
2 | KQLMKNLPKIPLLN [YDR228C 355-368] | 95.2 | 794 | 9.8 | 580 | 130 | 594 | 36400
3 | KQRIRKIPGIPLMS [YDR339C 161-174] | 1120 | 12300 | 108 | 622 | 3830 | 800 | 179
4 | KQSKRARPSSPYTV [YOR153W 486-499] | 66.6 | 462 | 11.9 | 271 | 102 | 291 | 99.9
5 | KRKAKAPPPPPPPP [YDL146W 469-482] | 11.5 | 19.3 | 22.4 | 4030 | 31.2 | 1100 | 17.5
6 | KRRSKSLPITPKSI [YIL045W 157-170] | 58.1 | 559 | 6.2 | 921 | 125 | 585 | 19400
7 | KRRSKSLPTTPGIR [YER054C 189-202] | 34.5 | 562 | 0.8 | 592 | 17.6 | 310 | 29800
8 | KSIPRTKPNVPPLQ [YDR466W 448-461] | 27.5 | 62.6 | 5.4 | 343 | 39.9 | 613 | 46.8
9 | KSLQKFEPRYPKTA [YMR014W 24-37] | 50.8 | 134 | 0 | 245 | 112 | 815 | 38.8
10 | KSYRKADPTNPQGW [YBR055C 231-244] | 9.6 | 94.7 | 0 | 103 | 56 | 78.2 | 29
11 | KTGRKTFPFLPYQI [YGL012W 364-377] | 26.1 | 171 | 29.6 | 466 | 56.2 | 129 | 140
12 | KTKKKTVPVKPLQL [YBL017C 684-697] | 38 | 179 | 67.6 | 359 | 44.3 | 1240 | 34.1
13 | KTRNKPKPLWPQVK [YGR033C 56-69] | 35 | 178 | 43.4 | 262 | 56.8 | 1200 | 115
14 | KTSTKAQPAEPQAE [YNL071W 132-145] | 43.6 | 162 | 3.7 | 167 | 72.7 | 84.2 | 6.5
15 | KTVDKGLPMIPTYV [YDR516C 56-69] | 20.1 | 11.9 | 5 | 76.8 | 24.1 | 14.3 | 8310
16 | KVIRKGSPKSPAMV [YKL170W 23-36] | 8.7 | 180 | 0 | 496 | 200 | 457 | 49.9
